Results on 3 proteins are retold here after paper PMC8281802, “Bacterial Vipp1 and PspA are members of the ancient ESCRT-III membrane-remodeling superfamily” (Cell, 2021).

The stoichiometry N is a count of units in the complex or per binding partner.

Data set [1] concerns the molecule itself. In words: cryo-EM structure; 35 μM Vipp1 mixed with pre-formed rat Dynamin 1 filaments (to keep the ice thick) and vitrified; rings of C11 to C17 symmetry reconstructed.
Data set [2] deals with the molecule itself. In words: cross-linking; cysteine cross-linking: 5 μM protein in 25 mM Tris-HCl pH 8.4, 50 mM NaCl with CuP or 5 μM MTS-4, 1 h at room temperature; rescue with 10 mM DTT; SDS-PAGE.
Data set [3] concerns the molecule itself. In words: SEC + other: negative stain EM; filament assembly assay: Sephacryl 16/60 S500 gel filtration in 25 mM Tris-HCl pH 8.4, 50 mM NaCl; void volume, peak 1 and peak 2 analysed by SDS-PAGE and negative stain EM. On the technique in general: Size exclusion chromatography separates by hydrodynamic size, large species first.

Numbering of substitutions follows the chain as printed. Numbers in names are those of the source. Where “and” joins values, the source holds several entries; their conditions need not be identical. Equal entries are not always repeated.

B1: Vipp1/IM30 from Nostoc punctiforme, full-length (amino acids 1–258) (natural protein, UniProt B2J6D9 1-258, looked up)
chain: MGLFDRIKRVVSSNLNDLVNKAEDPEKMLEQAILEMQEDLVQLRQGVAQAIAAQKRSEKQYNDAQNEINKWQRNAQLALQKGDENLARQALERKKTYTDTSAALKASLDTQSTQVETLKRNLIQLESKISEAKTKKEMLKARITTAKAQEQLQGMVRGMNTSSAMSAFERMEEKVLMQESRAQALGELAGADLETQFAQLEGGSDVDDELAALKAQMLPPATPVTQAQLPPQQETTPAKSNEVVDAELDSLRKQLDQL
notes: Vipp1/IM30, Nostoc punctiforme, UniProt B2J6D9, amino acids 1-258, 28.7 kDa; His6 sits on the MBP moiety and leaves with it on TEV cleavage; also called native Vipp1; WT; not shown: MBP, N-terminal, cleaved; His6, N-terminal, cleaved
On to B1, for which the “stoichiometry N” value in data set [1] is 84 subunits and 55 subunits to 119 subunits (2×).

B2: Vipp1_(L86C/L193C) (natural protein, Nostoc punctiforme, UniProt B2J6D9 1-258, looked up)
chain: B1 chain with L86C, L193C
notes: Vipp1/IM30, Nostoc punctiforme, UniProt B2J6D9, with the cysteine pair L86C and L193C; Plasmid pOPTM/Vipp1_(L86C/L193C); The legend notes some uncleaved MBP-Vipp1 in the gel; also called L193C and L86C mutants; not shown: MBP, N-terminal, cleaved; His6, N-terminal, cleaved
With B2, the binding result in data set [2] is listed as “binds”.

B3: Vipp1Δα6_(1–219) (domain or fragment, Nostoc punctiforme, UniProt B2J6D9 1-219, looked up)
chain: MGLFDRIKRVVSSNLNDLVNKAEDPEKMLEQAILEMQEDLVQLRQGVAQAIAAQKRSEKQYNDAQNEINKWQRNAQLALQKGDENLARQALERKKTYTDTSAALKASLDTQSTQVETLKRNLIQLESKISEAKTKKEMLKARITTAKAQEQLQGMVRGMNTSSAMSAFERMEEKVLMQESRAQALGELAGADLETQFAQLEGGSDVDDELAALKAQMLP
notes: Vipp1/IM30, Nostoc punctiforme, UniProt B2J6D9, residues 1-219; lacks the C-terminal extension with helix α6 (aa 220-258); Plasmid pOPTM/Vipp1Δα6_(1-219); not shown: MBP, N-terminal, cleaved; His6, N-terminal, cleaved
For the protein B3, in data set [3], the binding result is reported as “binds”.
